The DeepSol protein solubility set

Test: soluble on expression in E. coli; label from the status in PepcDB or PDB records

Soluble on expression in E. coli, soluble:
MDSEGASSESSSSGDQLEKWTEEQDELKKKLIAYDDFTWKLSSSTELSQGSEILKYVGGVDMSFCKEDSSVACACLVVLELPSLRVVHHDFSLLRLHVPYVPGFLAFREAPVLLQILQKMRDEKHPFYPQVLMVDGNGILHPRGFGLACHLGVLAHLPTIGVGKNLHHVDGLNQSEVKQSLQLQINEHEQTITLVGNSGITWGVGFRPTLSSLKPIYVSVGHRISLDSAVEVVKITCKYRVPEPIRQADIRSRAYLQKHQTESFKELAVRPPDQTEP
MTVEQNVLQQSAAQKHQQTFLNQLREITGINDAQILQQALKDSNGNLELAVAFLTAKNAKTPPQEET
MSLLRFSAVSRHHRGASIDPMTFSEATTPDALTPDAHTPRLLTCDVLYTGMGGAQSPGGVVVVGETVAAAGHPDELRRQYPHAAEERAGAVIAPPPVNAHTHLDMSAYEFQALPYFQWIPEVVIRGRHLRGVAAAQAGADTLTRLGAGGVGDIVWAPEVMDALLAREDLSGTLYFEVLNPFPDKADEVFAAARTHLERWRRLERPGLRLGLSPHTPFTVSHRLMRLLSDYAAGEGLPLQIHVAEHPTELEMFRTGGGPLWDNRMPALYPHTLAEVIGREPGPDLTPVRYLDELGVLAARPTLVHMVNVTPDDIARVARAGCAVVTCPRSNHHLECGTFDWPAFAAAGVEVALGTDSVASGETLNVREEVTFARQLYPGLDPRVLVRAAVKGGQRVVGGRTPFLRRGETWQEGFRWELSRDLEGHHHHHH
QRLKVEDALSYLDQVKLQFGSQPQVYNDFLDIMKEFKSQSIDTPGVISRVSQLFKGHPDLIMGFNTFLPPG
MGSDKIHHHHHHMTVRTRVTDLLEIEHPILMGGMAWAGTPTLAAAVSEAGGLGIIGSGAMKPDDLRKAISELRQKTDKPFGVNIILVSPWADDLVKVCIEEKVPVVTFGAGNPTKYIRELKENGTKVIPVVASDSLARMVERAGADAVIAEGMESGGHIGEVTTFVLVNKVSRSVNIPVIAAGGIADGRGMAAAFALGAEAVQMGTRFVASVESDVHPVYKEKIVKASIRDTVVTGAKLGHPARVLRTPFARKIQEMEFENPMQAEEMLVGSLRRAVVEGDLERGSFMVGQSAGLIDEIKPVKQIIEDILKEFKETVEKLRGYIEE
MLEINKIHQMNCFDFLDQVENKSVQLAVIDPPYNLSKADWDSFDSHNEFLAFTYRWIDKVLDKLDKDGSLYIFNTPFNCAFICQYLVSKGMIFQNWITWDKRDGMGSAKRRFSTGQETILFFSKSKNHTFNYDEVRVPYESTDRIKHASEKGILKNGKRWFPNPNGRLCGEVWHFSSQRHKEKVNGKTVKLTHITPKPRDLIERIIRASSNPNDLVLDCFMGSGTTAIVAKKLGRNFIGCDMNAEYVNQANFVLNQLEIN
MSLTRNRTVALAIIDMQNDFVLPGAPACVEGAMGTVPVIAGLLAKARAEGWMVLHVVRAHRADGSDAEKSREHLFLEGGGLCVAGTPGAEIVAGLEPASGETVLVKTRFSAFMGTECDMLLRRRGVDTLLVSGTQYPNCIRGTAVDAFALDYDVVVVTDACSARTPGVAESNINDMRAMGITCVPLTALDDVLARRPVPSGPPPREGHHHHHH

Soluble on expression in E. coli, not soluble:
MGSDKIHHHHHHMYPECAKLPTFLRTVHEDVDAQARSLFTLDQNYMQVDPGPFCGTMATCDFGTGLVVSFEQVNKRVLQVAAVPFGTAQVALILEAGEPTTHNQVGRIRNAGVVMAPGAEARLSAGANTRVCLISIAGEAADHLRSRYNFDPDSLRADIFLDPAETTALRGLVTEAYQRFSSPQADRSFDQASAAAFHEAVLSVTAWTCASSARTQNQHRVAGDCRTTALTAAIRLIDHNLHNPVTVEWLARTLGVSRRSLEQAFGEAFDTSPGRYIKVLRLNSLRQMLRDPSNAEVSIGDLAARCGLWHQGRLASEFRELFGVLPSEARG
MGSDKIHHHHHHMLIDEEITLKKLETFLAFMRTGNLARAAAELGTSNVSVHRAIHSLESALRCPLFKHEGRNLTPLESAYVLEERAQKLVQEVLDTVRLTREAAGFSAERFKLGALYSLTVKTVPQLIMGLKLRRSALNIDLILGSNVDLFYQLKNMELDAILVSLNDSVSDPDCEHLPLFSDDIFLAVPVDSPYARLAEIDLSTLRDTPFVTLTQGFATHQDGTRVFQQAGFEPQIAMQVNDIFTLLSMVSSGVGHALLPKRIEAVYENRVRLIPLQPRYRLQQHIGVVFLKAKERDPNLLALLAECRMYSLRLEQEAAG
MDTDNNLTFVDFYYRWLEITKLDIINDTSYKRYITAIKAFKDCFGNKLISDIDSLSYQKFLKDYGRGHFLNNGQLRPRTSNTVSKMNNCLKQAFESAVEQGYIKKNLEHHHHHH
